Key:
[1] = substrate: COc1cccc(OC)c1O; assay: purified protein; format: biochemical, Amycolatopsis sp. ATCC 39116; details: O2, 50 mM Tris-HCl, pH 8, 30 °C, 0.1 μM sLac
[2] = substrate: CCn1c(=NN=c2sc3cc(S(=O)(=O)O)ccc3n2CC)sc2cc(S(=O)(=O)O)ccc21; assay: purified protein; details: O2, 50 mM sodium acetate, pH 5, 30 °C, 0.1 μM sLac

B1: sLac (Amycolatopsis sp. ATCC 39116) (protein)
chain: QGTTRRITMYAEKISDELYGYGLAPGGATVPGPVLEMWEGDTLEIDLVNTTDRVLSLHPHGVDYDVNSDGTLMNGSAVMPGQTRRYTWRSHVGYRRADGSWAEGTAGYWHYHDHAMGTEHGTEGVLKGLYGALVVRRQGDLLPKRQFTVVFNDMMINNRAHHDAPTFEANLGERVEWIAIGHGSNFHTFHLHGHRWLDNRTGMRTSEYDPSPLIDIKDLNPGVSFGFQVIAGEGVGPGMWMYHCHVQNHSDMGMAGMFLVRNADGTMPAGVHEH
notes: residues 6-279, putative N-terminal TAT signal removed, TEV-cleavable N-terminal poly-His tag (cleavage not mentioned), pET15a(+), E. coli Rosetta BL21(DE3)pLysS; forward primer […] encodes MQGTTRRI; reverse primer encodes C-terminal ...VHEH
Km [1]: 3000 ± 100 µM
kcat [1]: 0.5 ± 0.07 s⁻¹
Km [2]: 500 ± 40 µM
kcat [2]: 7 ± 0.3 s⁻¹
